# Test results from the domain aggregation screens of Martell et al. (2025).
# Assay: soluble fraction after stress (log2 fold change); higher = more stays soluble; pooled small domains, quantitative proteomics
# Conditions: stress: 50 degC
# In short: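 The stress applied to every library was 50°C. These custom libraries of small protein domains were pooled and measured at high throughput with quantitative proteomics as the read-out. Aggregation propensity is expressed as the base-two logarithm of the fold change in how much of each protein remains soluble. The higher the value, the more of that protein stays in solution.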
row,Sequence,soluble fraction (log2)
1,HMGTYTSALDGIKGLGKKRKMLLLNTYKSIDVLKSVPLTELSQLIPREVAEALLTKLNRVDD,-0.118
2,HMRTSIWTAIAHSLRSDIGSGVYGPDDKLPTESALAARFGVNRHTVRHAIKALTDEGLVLPRRGAGVFVTS,-0.21
3,HMDQDIILHKVQPGDTLSKILLHYHSHQDRNKLQGLIAESMTANPFIKNPDLIYPGQLIQVPVPA,0.05
4,HMEEINTAPVFKNIIEIAEYAKTKFTTVEEIPKMIEFIETANSKLDNPHDEESVNELINALSTNIRKNV,0.193
5,HMIVSVPNVRGMGESKAAAALQNRGLLVSIDYESSTSASQGEVIRQSISPGTEVTKGSSITIIIAVSPN,-0.0262
6,HMSRESNISTGRQLLEAQLPTWGYKKVEDIPSKQMKTALDAFNYKDVESLLQGLGEGSVALTTALRRLMP,0.313
7,HMSSETTVPAVVGIKEDKARQLASEQGLRLRVKSREESADVEEGIIISQDPNSNTKVKKGDEIEVVVS,0.254
8,HMFNLFPHLSVLRNITLAPQKVKGLNRSESNEIAMSLLERVGIPEQSDKFPSQLSGGQQQRVAIARALAM,-0.402
9,HMLWTDTKYVTVPDFVGKEPKEIESSYLYNIEYHGEGTKVISQQPAAFSRTIEGGTVRLYLG,0.0884
10,HMERPEVVAYRLAYASAESLRPALGLVASPSDLEIDERTNTLIVRAVPSVQERVAELVASLDI,-0.237
11,HMVTIEEMMDRLLTRVQRAVNMSFSEFSGEAKEKVEVIVSFLALLELVKQGAVDVLQHENFSDIRIENT,-0.857
12,HMQLEPLVTSVIPVNFAKASDISGTIKGKEVGLLSERGNITAENRTNVLIVKDIRKSVDEINAMVKRLD,-0.0183
13,HMDTAGSVAIVSKSVIENGFGEIKYKGTYFKAQSDVYIPKDQMVKVIGKGDEQGSFLIVEKLN,-0.0425
14,HMKGEIEELLYEEVTKDNNTTFLRIYIKLNDEYNTLLNLGIIGIKTEEKVNELVNLGYKKVL,-2.45
15,HMDSIDIDAETKSLGPNAPQIIKGIKEWGQGLVAKGVWSDQDFEEFKVFAATANGINALNKVRKFY,-0.154
16,HMNEDFSEIIAAVKKFAVDNLSLSTLSDEELEEQIKTITDNMIGNRYVSIKNRVDIAQQVFSSIR,-0.0581
17,HMAQVSDTGAIAKIVADAIAANPKQVQQYLDGNEKVLMYLVGQVMKLSKGKANPPMVIQLLKEQLG,-0.0543
18,HMNTKDRIKQLAAQRKITIAELERKLHIANGTIGKWDKQNPSIEPLKKLADYFGVTTDYLLGRT,0.162
19,HMPEEGPSEDGNSFTAKFKLGSDVQGAMEQADAAAKAGLQDAGKGTGQITSRAQVGGYIYSTATA,0.0661
20,HMKLHFTINGVHYTWYKQFIRGIQIRELGNIPREDELYLDLPDGWKDDFIEDDEIVDLARPGVEHFISRAK,-1.78
21,HMSVKYLQIYHAIREKILSNEYAINQQLPDEITLTKEFNSSRMTVKKALDLLVSEGLIFRKRGQGTFVLSR,-2.27
22,HMTMVVIMNADATQADIEGVISAIEEKGLEAKVMEGAHQKIVGVIGDKTKLAATPLDAMHGVETTVAIS,-0.0878
23,HMKSDVVFDITDGTVKAMLKFNRSDVTILNNDGKNYYLFTANGEFTFKYQDGSGEYYEKTVYVDWLEDE,-1.24
24,HMISFTDLEHIEKMIENVLYTKTPLNLPPTDAKIRKIEHQIARRYGLNSESFGDEPRRFVVVYPNEERE,-0.625
25,HMDEAAGVLTQLRAFIAASNLSPGLRLPPERELAEQLGVTRAELRKALAVLEAEGLLWRQVGKGTFYGARP,-0.481
26,HMIKRITDEQHPVDVDRLLVVTFTNAAASEMRERIGDAIEAALEKDPYNQHLQRQLTLVHNAQITTIDS,-0.0115
27,HMPVFSLTPRELEILEWMSTPNTYRQIAAQLSVSEETVRSHAKNILEKMRQPNRAQAVLAAVKMGLIKL,-0.819
28,HMDSIGTQIRKLREEAEMPLRKLSALLDIDQSTLSKIERDERRANTQMIEQIAKIFKVNKEQLLVA,-0.926

row,Sequence,soluble fraction (log2)
1,HMSDLVATKEQVVEAYKYGLGLGLDNSTLKMLLFDIRGEDVADQDKISDGMTVSEIEIWKEGMRTIAEEYL,-0.508
2,HMKTLDATQRLKLNGEGIIVFNFGKYVDQPVVEIFKKERGYFAWMMSKDFSQQVKNIITKIHNEEILGK,-2.76
3,HMGTSFKITFYKDAFQVDDGPIRMLNDPANQKFVDEVSQGYAPKELIGQGGKAPEIDIIDKRSENAPT,0.128
4,HMHTGEVVNGKVIDVKEDQIILNVGFKSDGIITRSEYSNDNSLDLRTVVNVGDDMEAKVLKINDGEGQVLL,-0.185
5,HMPLNRFLNLPHEDKERVLLIAKKQFSTHGYDAMSLNLLLKELDISKGQFYYWFEDKADLFFTVL,0.0032
6,HMLSKEFRFFTYLLESYAQHKNTTAGAVLKTLDEKGLTDFVYKMYDLYHVEAIENAYMDLDSLIATGKPA,-2.98
7,HMSTVISPLPGNIIKVLVPEGKSVKRGDTILTIESMKMENSIKAAYDGVVKKIYVQQAQIVMQGDPLFDL,-1.24
8,HMENIIFDIGFHKGEDTLFYLLKGYRVIAVDADPDLINEWQNIFKKYIENGKLLLLNYVISDT,-1.33
9,HMGGLLSVIQKKAINNVKDRYSENAIKSMTKVQLHDLIKAETSRLLDPANAKETPEYQAFLEE,0.0926
10,HMLTKSVLGNQIKVLRLEKGLSQEEFGAPVDLSRSAVSQIESGQMYPSLESIGKIVKYYSTSWDNLVG,-0.821
11,HMYVVLYPGMARDEAVQVMNELQSRGIDYYEKNGNIYVPKTDENSLRMELANLGYPKTTNNYD,0.0519
12,HMQDLVAVPALTGLTENDAINKAKANNLIAVVSEYKTENSVEPGKVLEQDPESSTEVKKGTIIKLVVS,≥ 0.62
13,HMTEDADIERRLTGILASAGWYRSLAVEVKEGIVYLDGATASGNHRDWAGSLAAKTEGVVAVVNRIEVQP,-0.238
14,HMQAKNGTVTGSVVNVRGGAGTQYAVKGKASRGTKVTILGQQSSWLNVRLDNGVTGWIHADYVQISE,0.463
15,HMKAPLTFVIEGKEYEAFDQYKTGAELKQLAGIPLDTELFLSISKPYQDELIENEKQVNLARPETEYFFVK,-0.0489
16,HMAPPDFTTFMRNYQDMVYSTAVRLIGNETQAEDIAQEVFIKAHAHFENLRTSPSAGGWLKTVATNLSIN,-0.997
17,HMPMDDETWDALSLFAYKRYARENGWPLMIGAEALRDTFASYFPLDSSTWQDRSSHYLTYQDGIYTRT,-0.53
18,HMKTVPNVEGEKDGTAQSAIESAGLKVGKVTYQYDDNTSKGLVISQSVKGGEKVKPNTAIDLVVSNGPK,0.0173
19,HMSEPFDMAVPLTSGGRRLDQVLAELLPQHSRNRLQGWIRDGLLTLDGVTVTEPKRKLAGGEQLALLLP,-0.13
20,HMIPKDKQAWIALTYIYGVGRTTSMEILKKAQVGEEIRMKDLTEEEVTRIRNIIDKEYEVEGDLRRN,-0.292
21,HMTTEIVRMKKDVKIGQEITAKDIEVVEVGAYNLPDEVIRSSEEVVGKYVSSELLKGEYVLPSKISDTP,0.0729
22,HMQIKEVDYGTFISMTEDGEIGRVEIQQQENTILFTDEDETAVYKTAMVEDDQLTQRLYDAGISFYGEE,-0.0136
23,HMSFVAYEEEKAIGMVRLIGDGGMSFYIKDFAVLPGHQGKGVGQMLLMELQQYLLEHKPADWAVSLE,-0.329
24,HMKYYIYQGLGDSGELTKIAEVTDVKTYTATGLEANTKYRFAVSAYNGLRESSKSNIITVTT,0.0324
25,HMNVSVSITKELQVYINDERISSSALESTLKSKLAGIENPTIILRAEEGVPIEKAVNVMDIANRNRYKIVL,-0.522
26,HMDTSISHLVGRTGEAVTDLRPAGTVMIDGELYDARATEGFIEKGEIVKAIKYQYGQLNVRRVSK,0.0877
27,HMENLVPVVVATTNIEPRTQITDAMVKVEQIPALGRNESMLEDPALVVGGYATGKIYAGQSFIQPMVSK,0.179
